Assay results reported in patent US20200017592A1 (Regeneron, published 2020).

T1: human IL-36R extracellular domain expressed with a C-terminal mouse IgG2a Fc tag (hIL-36R-mFc) (human; mouse, UniProt Q9HB29 20-337)
T1 construct: not shown: mouse IgG2a Fc, E98-K330
T1 sequence (looked up): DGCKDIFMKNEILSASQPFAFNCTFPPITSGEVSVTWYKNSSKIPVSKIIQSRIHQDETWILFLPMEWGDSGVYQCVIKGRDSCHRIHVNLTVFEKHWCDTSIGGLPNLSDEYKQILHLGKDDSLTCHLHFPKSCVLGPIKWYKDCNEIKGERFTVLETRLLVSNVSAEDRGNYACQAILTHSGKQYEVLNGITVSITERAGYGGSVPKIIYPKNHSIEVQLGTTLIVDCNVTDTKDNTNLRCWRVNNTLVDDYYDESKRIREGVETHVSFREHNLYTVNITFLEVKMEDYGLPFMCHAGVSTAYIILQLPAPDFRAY

T2: in-line fusion protein of human IL-36R extracellular domain and IL1RAcP extracellular domain expressed with … (human; mouse, UniProt Q9HB29 20-337; Q9NPH3 21-359, limits assumed)
T2 construct: not shown: mouse IgG2a Fc
T2 sequence (looked up): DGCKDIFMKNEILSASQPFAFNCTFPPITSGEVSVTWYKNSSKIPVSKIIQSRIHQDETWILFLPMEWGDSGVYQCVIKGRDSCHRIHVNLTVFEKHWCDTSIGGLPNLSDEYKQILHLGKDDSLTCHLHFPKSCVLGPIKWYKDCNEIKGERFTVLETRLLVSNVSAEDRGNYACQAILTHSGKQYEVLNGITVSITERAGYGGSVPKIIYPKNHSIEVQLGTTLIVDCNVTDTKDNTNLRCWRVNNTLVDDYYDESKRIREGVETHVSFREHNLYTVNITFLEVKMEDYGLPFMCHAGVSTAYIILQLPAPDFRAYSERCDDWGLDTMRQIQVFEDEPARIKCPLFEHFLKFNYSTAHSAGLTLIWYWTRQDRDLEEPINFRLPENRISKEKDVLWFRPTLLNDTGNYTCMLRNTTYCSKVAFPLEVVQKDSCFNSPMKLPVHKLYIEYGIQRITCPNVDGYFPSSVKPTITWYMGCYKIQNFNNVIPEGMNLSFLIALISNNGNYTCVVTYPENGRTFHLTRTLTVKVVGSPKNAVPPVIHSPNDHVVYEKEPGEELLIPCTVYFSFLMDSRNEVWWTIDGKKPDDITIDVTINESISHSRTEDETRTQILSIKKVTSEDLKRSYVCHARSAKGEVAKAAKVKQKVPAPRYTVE


Assays:
[1] = biological target: T3, human IL-36R extracellular domain expressed with a C-terminal myc-myc-hexahistidine tag (hIL-36R-MMH) (human, UniProt Q9HB29 20-337); test: SPR Biacore T200, mAb captured on anti-hFc, 37C, PBS-T pH 6.0 running buffer
T3 construct: also called Human IL-36R-MMH; REGN2105
T3 sequence (Q9HB29 other isoform, or with tags, fused parts or gaps limits assumed): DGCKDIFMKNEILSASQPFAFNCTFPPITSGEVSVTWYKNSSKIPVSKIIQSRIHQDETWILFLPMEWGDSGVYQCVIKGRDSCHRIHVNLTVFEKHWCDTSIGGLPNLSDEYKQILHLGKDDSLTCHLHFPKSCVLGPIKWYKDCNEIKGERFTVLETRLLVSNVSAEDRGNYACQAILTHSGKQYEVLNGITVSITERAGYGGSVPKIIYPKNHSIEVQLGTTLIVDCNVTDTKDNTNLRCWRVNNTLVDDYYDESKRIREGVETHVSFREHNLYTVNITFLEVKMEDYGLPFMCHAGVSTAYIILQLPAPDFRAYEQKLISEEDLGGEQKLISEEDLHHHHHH
Method: (§1) Additional binding experiments were performed to determine the effect of pH on the rate of dissociation of IL-36R bound to purified anti-IL-36R antibodies, which was determined using a real-time surface plasmon resonance biosensor using a Biacore T200 instrument. The Biacore sensor surface was first derivatized by amine coupling with a monoclonal mouse anti-human Fc antibody (GE, # BR-1008-39) to capture anti-IL-36R antibodies. […] Different concentrations of hIL-36R-MMH and mfIL-36R-MMH prepared in PBS-T, pH7.4 buffer (ranging from 100 nM to 11.11 nM, 3-fold dilutions) were injected over the anti-IL-36R antibody captured surface for 4 minutes at a flow rate of 50 μL/minute and their dissociation in two running buffers, PBS-T, pH7.4 and PBS-T, pH 6.0, was monitored for 10 minutes. All of these binding kinetics experiments were performed at 25° C. and 37° C. Kinetic dissociation constant (kd) were determined by fitting the real-time sensorgrams to a 1:1 binding model using Scrubber 2.0c curve fitting software. Binding dissociative half-lives (t_{1/2}) were calculated from kd as: […]

[2] = biological target: T3, human IL-36R extracellular domain …; test: SPR Biacore T200, mAb captured on anti-hFc, 37C, PBS-T pH 7.4 running buffer
Method: as §1

[3] = biological target: T3, human IL-36R extracellular domain …; test: SPR Biacore T200, mAb captured on anti-hFc, 25C, PBS-T pH 6.0 running buffer
Method: as §1

[4] = biological target: T1, human IL-36R extracellular domain …; test: SPR Biacore 4000, mAb captured on anti-hFc, 25C
Method: (§2) Equilibrium dissociation constants (KD values) for IL-36R binding to purified anti-IL-36R antibodies were determined using a real-time surface plasmon resonance biosensor using a Biacore 4000 instrument. The Biacore sensor surface was first derivatized by amine coupling with a monoclonal mouse anti-human Fc antibody (GE, # BR-1008-39) to capture anti-IL-36R monoclonal antibodies. All binding studies were performed in 0.01 M Hepes pH 7.4, 0.15 M NaCl, 3 mM EDTA, and 0.05% v/v Surfactant Tween-20 (HBS-ET running buffer) at 25° C. and 37° C. Different concentrations of IL-36R reagents, human IL-36R extracellular domain expressed with a C-terminal myc-myc-hexahistidine tag (hIL-36R-MMH), Macaca fascicularis IL-36R extracellular domain expressed with a C-terminal myc-myc-hexahistidine tag (mfIL-36R-MMH: mROR1 signal sequence (M1-A29). Macaca fascicularis IL36R_ecto domain (D20-A336).mycmycHis6), human IL-36R extracellular domain expressed with a C-terminal mouse IgG2a Fc tag (hIL-36R-mFc: mROR1 signal sequence (M1-A29)-human IL36R (D20-Y337)-mouse IgG2aFc (E98-K330)) or an in-line fusion protein of human IL-36R extracellular domain and IL1RAcP extracellular domain expressed with mouse IgG2a Fc tag (hIL-36R-Trap-mFc: mROR1 signal sequence (M1-A29)-human IL36R ecto domain (D20-Y337)-human IL1RacP ecto domain(S21-E359)-mouse IgG2aFc) in HBS-ET running buffer (ranging from 100 nM to 3.7 nM, 3-fold dilutions) were injected over the anti-IL-36R antibody captured surface for 4 minutes at a flow rate of 30 μL/minute and their dissociation in HBS-ET running buffer was monitored for 10 minutes. Kinetic association rate constant (kₐ) and dissociation rate constant (kd) were determined by fitting the real-time sensorgrams to a 1:1 binding model using Scrubber 2.0c curve fitting software. Binding dissociation equilibrium constants (KD) and dissociative half-lives (t_{1/2}) were calculated from the kinetic rate constants as: […]

[5] = biological target: T2, in-line fusion protein of human IL-36R …; test: SPR Biacore 4000, mAb captured on anti-hFc, 25C
Method: as §2

[6] = biological target: T3, human IL-36R extracellular domain …; test: SPR Biacore T200, mAb captured on anti-hFc, 25C, PBS-T pH 7.4 running buffer
Method: as §1

[7] = biological target: T1, human IL-36R extracellular domain …; test: SPR Biacore 4000, mAb captured on anti-hFc, 37C
Method: as §2

[8] = biological target: T2, in-line fusion protein of human IL-36R …; test: SPR Biacore 4000, mAb captured on anti-hFc, 37C
Method: as §2

Row | Binder | 100 nM hIL-36R-MMH Bound (RU) [1] [RU] | koff [1] [s⁻¹] | t1/2 [1] [min] | 100 nM hIL-36R-MMH Bound (RU) [2] [RU] | koff [2] [s⁻¹] | t1/2 [2] [min] | 100 nM Human IL-36R-MMH Bound (RU) [3] [RU] | koff [3] [s⁻¹] | t1/2 [3] [min] | 100 nM hIL-36R-mFc Bound (RU) [4] [RU] | 100 nM hIL-36R-Trap-mFc Bound (RU) [5] [RU] | Kd [5] [nM] | koff [5] [s⁻¹] | kon [5] [M⁻¹ s⁻¹] | t1/2 [5] [min] | 100 nM Human IL-36R-MMH Bound (RU) [6] [RU] | koff [6] [s⁻¹] | t1/2 [6] [min] | 100 nM hIL-36R-mFc Bound (RU) [7] [RU] | Kd [7] [nM] | further results
1 | H4H14708P2 (antibody, human IgG4 S228P, kappa, V domains shown, Fully human anti-IL-36R antibody) VH: EVQLVESGGDLVQPGRSLRLSCAASGFTFDDYAMHWVRQAPGKGLEWVSVISWNSDVIAYSDSVKGRFTISRDNAKNSLYLQMNSLRTEDTALYYCTKGHKWSFFDYWGQGTLVTVSS VL: EIVLTQSPATLSLSPGERATLSCRASQSISSYLAWYQQKPGQAPRLLIFNVANRATDIPARFSGSGSGTDFTLTISSLEPEDFAVYYCQQRSNWPLTFGGGTKVEIKR | 95 | 0.00337 | 3 | 105 | 0.00177 | 7 | 79 | 0.00163 | 7 | 146 | 172 | 0.357 | 0.000129 | 361000 | 90 | 87 | 0.000796 | 15 | 203 | 0.435 | Kd [4]: 0.317 nM; koff [4]: 0.000128 s⁻¹; kon [4]: 403000 M⁻¹ s⁻¹; t1/2 [4]: 90 min; koff [7]: 0.0002 s⁻¹; kon [7]: 460000 M⁻¹ s⁻¹; t1/2 [7]: 58 min; 100 nM hIL-36R-Trap-mFc Bound (RU) [8]: 239 RU; Kd [8]: 0.656 nM; koff [8]: 0.000253 s⁻¹; kon [8]: 385000 M⁻¹ s⁻¹; t1/2 [8]: 46 min
2 | H4H14728P (antibody, human IgG4 S228P, kappa, V domains shown, Fully human anti-IL-36R antibody) VH: QVQLQESGPGLVKPSQTLSLTCTVSGGSISSADYYWSWIRQHPGKGLEWIGSIYYTGSTYYNPSLKSRLTISIDTSENQFSLKLTSLTAADTAVYYCASEEANWGSHFDSWGQGTLVTVSS VL: DIQMTQSPSSLSASVGDRVTITCRASQSIDNFLNWYQQKPGKAPKLLIYAASSLQSGVPSRFSGSGSGTDFTLTISSLQPEDFASYYCQHSHSAHPITFGQGTRLEIKR | 114 | 0.00306 | 4 | 121 | 0.00296 | 4 | 96 | 0.000887 | 13 | 7 | 63 | 14 | 0.000565 | 40300 | 20 | 103 | 0.000898 | 13 | 11 | 28.7 | koff [7]: 0.000465 s⁻¹; kon [7]: 16200 M⁻¹ s⁻¹; t1/2 [7]: 25 min; 100 nM hIL-36R-Trap-mFc Bound (RU) [8]: 89 RU; Kd [8]: 40.9 nM; koff [8]: 0.00198 s⁻¹; kon [8]: 48500 M⁻¹ s⁻¹; t1/2 [8]: 6 min
3 | H4H14709P (antibody, human IgG4 S228P, kappa, V domains shown, Fully human anti-IL-36R antibody) VH: EVQLVESGGGLVQPGGSLRLSCAASGFTFSDYAMSWVRQAPGKGLEWVSGISGNGGDTYYGDFVKGRFTISRDNSKNTLYLQMNSLRGEDTAAYFCVIDLDYWGQGTLVTVSS VL: DIQMTQSPSTLSASEGDRVTITCRASQSISSWLAWYQQKPGKAPRLLIYKASILGDGVPSRFSGSGSGTEFTLTISSLQPDDFATYYCHQYNSYLWTFGQGTKVEIKR | 146 | 0.00172 | 7 | 159 | 0.000704 | 16 | 99 | 0.000842 | 14 | 142 | 173 | 0.404 | 8.07e-05 | 200000 | 143 | 111 | 0.00042 | 28 | 211 | 0.205 | Kd [4]: 0.335 nM; koff [4]: 8.62e-05 s⁻¹; kon [4]: 257000 M⁻¹ s⁻¹; t1/2 [4]: 134 min; koff [7]: 0.000112 s⁻¹; kon [7]: 543000 M⁻¹ s⁻¹; t1/2 [7]: 104 min; 100 nM hIL-36R-Trap-mFc Bound (RU) [8]: 257 RU; Kd [8]: 0.264 nM; koff [8]: 0.000123 s⁻¹; kon [8]: 467000 M⁻¹ s⁻¹; t1/2 [8]: 94 min
